Test results published in publication PMC11602133, “Uncoupling [sequence]’s functions through modification of a protein motif identified by co-ortholog analysis” (Nucleic Acids Research, 2024).

Target: the molecule itself
Assay: native gel or EMSA; in vitro produced proteins (wheat germ TnT) mixed with a DY-682 labelled ~100 bp DNA probe containing a CArG-box (SAUR10 probe); protein complexes read from the shifted bands on DNA; anti-FLAG antibody added for supershift where FUL-FLAG was used

B1: FRUITFULL (FUL), Arabidopsis, in vitro produced (natural protein)
chain: not shown
notes: also called FUL(ST); source: in vitro translated (TnT SP6 High-Yield Wheat Germ Protein Expression System, pSPUTK vector)
  stoichiometry N: 2
